# Reference: patent publication US5919761A, “Peptides for heparin and low molecular weight heparin anticoagulation reversal” (The Board of Regents of the University of Michigan, priority 1995, dated 1999)
# Assays:
# LMWH (Enoxaparin) = test: Factor Xa and IIa reversal after LMWH Enoxaparin, canine study; format: in vivo; conditions: dogs, 3 min
# Protocol: Similar studies were conducted to assess the ability of the protamine-like peptide analogs described in this section to reverse the anticoagulation effects of the LMWH, Enoxaparin. FIG. 5a through FIG. 5d are graphical representations of LMWH anticoagulation activities achieved by n-protamine (Protamine [+21]), and compounds [+18BE], [+18KDEL], and [+18RGD] plotted as a percent of reversal against time in minutes. […] Referring to FIG. 5c, compound [+18RGD] dramatically outperforms n-protamine in reversing the heparin antifactor Xa activity of Enoxaparin.
# [1] = Hemodynamic studies and total toxicity score after standard heparin reversal at different rates, dogs
# Protocol: Hemodynamic studies were conducted by measuring mean arterial pressure (MAP) in mm Mercury, maximum percent changes in cardiac output (CO) and systemic oxygen consumption (VO2), and heart rate (HR) in beats per minute. Measurements and calculations were made at baseline, before LMWH administration, 3 minutes before reversal, every 30 seconds for 5 minutes after reversal.
# TTS were developed that reflected maximum declines in each of four parameters (MAP, CO, VO2 and HR) over the first 5 minutes after reversal in the same manner as described hereinabove.
# [2] = Maximum hemodynamic changes and total toxicity score after Enoxaparin reversal, canine study; conditions: dogs, agent over 10 seconds
# Protocol: Seven female dogs (mean weight 15-20 kg) received intravenous standard, unfractionated heparin (150 IU/kg IV) or LMWH (Enoxaparin, Rhone-Poulac, France; 100 IU/kg factor Xa activity) followed by reversal with commercial salmine protamine (n-protamine purchased from Eli Lilly, Indianapolis, Ind., 1.5 mg/kg (100 IU/mg) IV) or an anticoagulation-reversing agent which is a protamine-like peptide variant identified hereinbelow. In these studies, the anticoagulation-reversing agents were administered over a 10 second interval to maximize the hemodynamic effects.
# [3] = Hemodynamic studies and total toxicity score after standard heparin reversal, canine study; conditions: dogs
# Protocol: As used hereinafter, the peptides will be identified by their total cationic charge value, e.g., [+8], [+16], etc.
# Hemodynamic studies were conducted by measuring mean arterial pressure (MAP), heart rate (HR), and maximum percent changes in cardiac output (CO) and systemic oxygen consumption (VO2).
# Total toxicity scores (TTS) were developed that reflected maximum declines in each of four parameters (MAP, CO, VO2 and HR) over the first 5 minutes after reversal, the latter being the time of expected greatest adverse hemodynamic effect. The maximum changes occurring in an individual dog over the first 5 minutes were divided by the standard deviation derived from the entire group of tested animals and the four scores were added, resulting in a TTS for each individual dog. The TTS values for each dog were then summed to obtain an average TTS and SD for each peptide studied.
substance,measurement,setting,value
"PR4 S3 RPVR5 PRVSR6 G2 R4 [Protamine [+21], reference compound]",IIa Reversal,LMWH (Enoxaparin),98%
same,Xa Reversal,LMWH (Enoxaparin),30%
same,Total Toxicity Score,[1]; administered over 10 sec,-7.1 ± 4.63
same,Total Toxicity Score,[1]; administered over 3 min,-5.66 ± 4.04
same,"Maximum hemodynamic change, Mean BP","[2]; Enoxaparin 100 IU/kg, 5 minutes",-7 mm Mercury
same,"Maximum hemodynamic change, CO","[2]; Enoxaparin, 5 minutes",-23%
same,"Maximum hemodynamic change, HR","[2]; Enoxaparin, 5 minutes",-17 beats/min
same,"Maximum hemodynamic change, VO2","[2]; Enoxaparin, 5 minutes",-23%
same,Total Toxicity Score (TTS),"[2]; Enoxaparin, listed as Prot[+21]",-5.77
same,Total Toxicity Score (TTS),"[2]; Enoxaparin, listed as [+21] n-protamine",-5.77 ± 3.46
same,ΔHR,[3],-29
same,ΔMAP,[3]; average maximum decline in first five minutes after peptide administration,-34
same,average total toxicity score (TTS±SD),"[3]; first 5 minutes after reversal, more negative = more toxic",-7.0±5.2
same,ΔCO,[3]; maximum percent change,-38%
same,ΔVO2,[3]; maximum percent change,-35%
